{"source": "patent US11787839B2", "about": "“Targeting α2δ-1-bound glutamate receptors for treating diseases and disorders” (Board of Regents, The University of Texas System, priority 2017, dated 2023)", "key": {"anesthetized rats": {"test_system": "anesthetized rats", "assay": "PVN microinjection and recording of RSNA and ABP (Ang II)", "format": "in vivo, rat", "conditions": "peptides 100 μmol/L, 50 nl", "procedure": "PVN microinjection and recording of renal sympathetic nerve activity: Rats were anesthetized with a mixture of α-chloralose (60 mg/kg, i.p.) and urethane (800 mg/kg, i.p.). A retroperitoneal incision was made, and a branch of the left renal postganglionic sympathetic nerve was isolated under a surgical microscope. The renal sympathetic nerve was cut distally to ensure that afferent nerve activity was not recorded. The renal sympathetic nerve activity (RSNA), arterial blood pressure (ABP), and heart rate (HR) were recorded using a 1401-PLUS analog-to-digital converter and Spike2 system (Cambridge Electronic Design, Cambridge, UK). A microinjection pipette (tip diameter, 20-30 μm) was advanced into the PVN according to the following stereotactic coordinates: 1.6-2.0 mm caudal to the bregma, 0.5 mm lateral to the midline, and 7.0-7.5 mm ventral to the dura. The microinjection was done using a calibrated microinjection system (Nanoject II; Drummond Scientific) and monitored using a surgical microscope as described previously (Li and Pan, 2006, 2007; Qiao et al., 2017). Ang II (200 μmol/L, 50 nl) was microinjected into the PVN to observe the change in RSNA and ABP in the absence or presence of α2δ-1Tat peptide (100 μmol/L, 50 nl) or control peptide (100 μmol/L, 50 nl). The microinjections were separated by 10- to 15-min intervals to allow recovery of the response. To determine the location of the injection site and diffusion of the drugs in the PVN, 5% rhodamine-labeled fluorescent microspheres (0.04 μm; Molecular Probes) were included in the injection solution (Li and Pan, 2006, 2007; Qiao et al., 2017)."}, "[1]": {"target": "presynaptic NMDARs of spinal lamina II neurons (Rattus norvegicus, UniProt P35439+Q00959+Q00960)", "sequence (Q00959 20-1464 limits assumed, other chains not shown)": "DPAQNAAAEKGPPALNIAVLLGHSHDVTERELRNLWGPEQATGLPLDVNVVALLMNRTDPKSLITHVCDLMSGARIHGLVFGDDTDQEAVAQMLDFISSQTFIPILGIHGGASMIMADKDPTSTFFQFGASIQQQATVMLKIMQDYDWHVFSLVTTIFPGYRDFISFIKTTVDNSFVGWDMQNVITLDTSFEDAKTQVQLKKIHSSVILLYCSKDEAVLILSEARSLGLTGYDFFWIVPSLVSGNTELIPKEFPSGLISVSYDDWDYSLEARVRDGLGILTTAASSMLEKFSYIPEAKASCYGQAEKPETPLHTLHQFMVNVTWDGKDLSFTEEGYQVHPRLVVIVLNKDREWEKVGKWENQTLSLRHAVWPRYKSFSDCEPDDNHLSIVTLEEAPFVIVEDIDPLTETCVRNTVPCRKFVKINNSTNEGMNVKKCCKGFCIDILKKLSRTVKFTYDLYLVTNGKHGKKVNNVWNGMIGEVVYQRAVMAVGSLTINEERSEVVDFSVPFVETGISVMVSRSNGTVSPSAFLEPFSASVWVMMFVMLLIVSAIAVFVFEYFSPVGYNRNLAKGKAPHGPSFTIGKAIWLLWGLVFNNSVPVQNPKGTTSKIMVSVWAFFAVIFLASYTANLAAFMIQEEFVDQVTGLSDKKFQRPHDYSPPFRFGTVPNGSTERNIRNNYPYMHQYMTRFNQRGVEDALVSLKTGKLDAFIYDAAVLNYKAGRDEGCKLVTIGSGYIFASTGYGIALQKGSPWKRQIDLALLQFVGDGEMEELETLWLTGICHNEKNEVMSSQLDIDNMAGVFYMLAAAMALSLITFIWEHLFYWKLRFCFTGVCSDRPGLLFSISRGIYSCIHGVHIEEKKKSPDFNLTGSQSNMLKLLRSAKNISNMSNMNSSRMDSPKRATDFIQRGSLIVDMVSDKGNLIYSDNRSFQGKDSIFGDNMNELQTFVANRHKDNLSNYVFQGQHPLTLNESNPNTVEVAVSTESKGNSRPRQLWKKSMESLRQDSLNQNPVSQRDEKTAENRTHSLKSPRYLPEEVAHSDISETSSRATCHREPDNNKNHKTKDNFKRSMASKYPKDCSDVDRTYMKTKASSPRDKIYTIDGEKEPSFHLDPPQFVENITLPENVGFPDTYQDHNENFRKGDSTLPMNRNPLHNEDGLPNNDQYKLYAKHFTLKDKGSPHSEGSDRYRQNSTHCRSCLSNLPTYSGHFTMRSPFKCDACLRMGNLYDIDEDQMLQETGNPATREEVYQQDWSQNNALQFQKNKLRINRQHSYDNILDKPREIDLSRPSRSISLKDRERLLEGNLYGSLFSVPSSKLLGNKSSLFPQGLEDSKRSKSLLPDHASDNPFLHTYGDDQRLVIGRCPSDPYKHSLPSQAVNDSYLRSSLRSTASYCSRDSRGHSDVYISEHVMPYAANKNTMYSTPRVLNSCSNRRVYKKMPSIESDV", "sequence (Q00960 27-1482, other chains not shown)": "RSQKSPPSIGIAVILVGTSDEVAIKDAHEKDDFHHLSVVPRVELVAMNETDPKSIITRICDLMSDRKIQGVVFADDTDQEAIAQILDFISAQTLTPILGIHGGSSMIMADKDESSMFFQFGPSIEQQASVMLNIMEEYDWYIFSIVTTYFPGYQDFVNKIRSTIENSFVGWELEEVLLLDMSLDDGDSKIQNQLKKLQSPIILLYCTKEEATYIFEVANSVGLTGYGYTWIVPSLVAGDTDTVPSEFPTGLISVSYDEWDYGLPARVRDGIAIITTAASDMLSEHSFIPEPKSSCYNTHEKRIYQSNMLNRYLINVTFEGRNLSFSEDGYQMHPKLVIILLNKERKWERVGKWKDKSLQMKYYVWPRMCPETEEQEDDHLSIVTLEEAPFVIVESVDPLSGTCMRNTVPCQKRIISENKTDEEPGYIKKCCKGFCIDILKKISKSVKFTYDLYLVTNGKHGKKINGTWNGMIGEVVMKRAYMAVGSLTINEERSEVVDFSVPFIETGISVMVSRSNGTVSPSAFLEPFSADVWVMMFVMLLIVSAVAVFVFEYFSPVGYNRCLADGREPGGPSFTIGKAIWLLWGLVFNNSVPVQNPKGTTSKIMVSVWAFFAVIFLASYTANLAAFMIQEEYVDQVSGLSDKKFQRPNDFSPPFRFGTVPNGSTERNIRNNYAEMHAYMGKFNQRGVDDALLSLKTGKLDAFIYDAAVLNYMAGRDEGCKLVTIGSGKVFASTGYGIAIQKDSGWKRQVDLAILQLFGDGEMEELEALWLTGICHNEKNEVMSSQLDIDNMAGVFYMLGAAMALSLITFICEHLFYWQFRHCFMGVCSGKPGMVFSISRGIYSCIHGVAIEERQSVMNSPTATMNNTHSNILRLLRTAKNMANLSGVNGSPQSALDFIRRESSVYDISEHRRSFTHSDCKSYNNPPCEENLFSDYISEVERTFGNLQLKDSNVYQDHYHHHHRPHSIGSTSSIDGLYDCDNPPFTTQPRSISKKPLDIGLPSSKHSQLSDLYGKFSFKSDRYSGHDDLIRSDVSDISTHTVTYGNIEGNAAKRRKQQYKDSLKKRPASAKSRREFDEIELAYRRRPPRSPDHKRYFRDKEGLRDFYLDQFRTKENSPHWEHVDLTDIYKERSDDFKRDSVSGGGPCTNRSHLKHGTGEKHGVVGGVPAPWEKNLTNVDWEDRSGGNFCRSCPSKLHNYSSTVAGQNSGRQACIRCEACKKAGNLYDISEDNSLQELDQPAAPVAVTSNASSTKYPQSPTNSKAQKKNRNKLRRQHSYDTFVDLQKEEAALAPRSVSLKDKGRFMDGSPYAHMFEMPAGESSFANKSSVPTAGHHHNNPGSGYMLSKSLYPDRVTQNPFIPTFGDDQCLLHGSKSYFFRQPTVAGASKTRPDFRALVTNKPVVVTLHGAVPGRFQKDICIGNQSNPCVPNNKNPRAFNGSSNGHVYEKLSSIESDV"}, "[2]": {"target": "T1, α2δ-1 and NMDAR subunits in spinal cord synaptosomes (Rattus norvegicus, UniProt P35439+Q00959+Q00960)", "T1 construct": "from tissue; host or cells: rat lumbar spinal cord slices (lamina II neurons) and synaptosomes made from them", "assay": "Protein levels in spinal cord synaptosomes of treated slices (SNL, sham)", "format": "cell-based", "conditions": "slices treated 30 min", "procedure": "PSD-95, a known postsynaptic protein, was used as an internal control.\nSpinal cord synaptosome preparation: The spinal cord slices were pooled from 2 rats and were homogenized using glass-Teflon homogenizer in 10 volumes of ice-cold HEPES-buffered sucrose (0.32 M sucrose, 1 mM EGTA, and 4 mM HEPES at pH 7.4) containing the protease inhibitor cocktail (Sigma-Aldrich). The homogenate was centrifuged at 1,000×g for 10 min at 4° C. to remove the nuclei and large debris. […] The synaptosomal pellet was lysed via hypo-osmotic shock in 9 volumes of ice-cold HEPES-buffer with the protease inhibitor cocktail for 30 min. The lysate was centrifuged at 25,000×g for 20 min at 4° C. to obtain the synaptosomal membrane fraction, which was then dissolved in sodium dodecyl sulfate sample buffer at a final concentration of 0.25 μg/μl for immunoblotting. […] The α2δ-1Tat peptide and scrambled control peptide were synthesized by Bio Basic Inc. (Marham, Ontario, Canada) and validated by using liquid chromatography and mass spectrometry."}, "[3]": {"target": "T2, NMDARs of RVLM-projecting PVN neurons (Rattus norvegicus, UniProt P35439+Q00959+Q00960)", "T2 construct": "from tissue; host or cells: rat hypothalamic slices containing the PVN (Sprague-Dawley, WKY, SHR) and synaptosomes made from them", "assay": "Recordings of RVLM-projecting PVN neurons in slices of WKY rats and SHRs", "format": "cell-based"}, "[4]": {"target": "T3, NMDARs of hippocampal CA1 pyramidal neurons (Mus musculus, UniProt O08532+P35438)", "T3 construct": "from tissue; host or cells: mouse brain slices (hippocampal CA1, hypothalamic PVN, brain tissue membrane extracts)", "T3 sequence (O08532 25-956 limits assumed, other chains not shown)": "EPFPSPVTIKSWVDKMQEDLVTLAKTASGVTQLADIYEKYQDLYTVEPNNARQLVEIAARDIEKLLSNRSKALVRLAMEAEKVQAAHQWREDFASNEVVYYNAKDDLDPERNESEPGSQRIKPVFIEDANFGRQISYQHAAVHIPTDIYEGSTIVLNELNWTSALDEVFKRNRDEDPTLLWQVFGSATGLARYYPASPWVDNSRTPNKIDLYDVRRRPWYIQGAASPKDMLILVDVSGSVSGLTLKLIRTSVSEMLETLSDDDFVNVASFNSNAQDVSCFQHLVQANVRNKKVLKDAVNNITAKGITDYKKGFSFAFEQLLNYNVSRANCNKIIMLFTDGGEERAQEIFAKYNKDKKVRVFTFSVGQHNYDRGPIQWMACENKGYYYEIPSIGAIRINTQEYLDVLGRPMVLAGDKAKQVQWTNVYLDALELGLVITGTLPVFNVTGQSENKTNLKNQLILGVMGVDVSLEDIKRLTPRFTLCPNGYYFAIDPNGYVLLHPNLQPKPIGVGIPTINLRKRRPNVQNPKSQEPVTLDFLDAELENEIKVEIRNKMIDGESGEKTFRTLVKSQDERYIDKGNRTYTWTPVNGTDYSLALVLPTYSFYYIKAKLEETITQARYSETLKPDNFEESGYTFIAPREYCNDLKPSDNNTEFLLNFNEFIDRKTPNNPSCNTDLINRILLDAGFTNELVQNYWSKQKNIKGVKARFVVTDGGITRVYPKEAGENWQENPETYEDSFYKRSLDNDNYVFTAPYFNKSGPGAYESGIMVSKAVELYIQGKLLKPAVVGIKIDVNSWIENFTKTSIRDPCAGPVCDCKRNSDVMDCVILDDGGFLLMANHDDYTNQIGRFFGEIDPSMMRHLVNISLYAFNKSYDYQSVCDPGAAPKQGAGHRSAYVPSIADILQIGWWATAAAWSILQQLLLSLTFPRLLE", "assay": "Puff NMDAR currents of hippocampal CA1 neurons, oxygen-glucose deprivation (OGD)", "format": "cell-based", "conditions": "5 min OGD; gabapentin 30 or 100 μM, peptides 1 μM, 60 min", "procedure": "Brain slice preparation and recording. The tissues containing the hippocampus were sliced sagittally (300 μm thick) using a vibratome. […] NMDAR currents of pyramidal neurons in the hippocampal CA1 region were recorded by puff application of 100 μM NMDA directly to the recorded neuron at a holding potential of −60 mV."}, "[5]": {"target": "T4, presynaptic NMDARs of spinal dorsal horn neurons (Rattus norvegicus, UniProt P35439+Q00959+Q00960)", "T4 construct": "from tissue; host or cells: rat lumbar spinal cord slices (lamina II neurons) and synaptosomes made from them", "assay": "Spinal cord slice recordings, morphine-treated rats", "format": "cell-based", "conditions": "AP5 50 μM, gabapentin 100 μM, peptides 1 μM for 60 min", "procedure": "Spinal cord slice preparation and electrophysiological recordings: The lumbar spinal cord was rapidly removed through laminectomy from the animals anesthetized with isoflurane. […] The spinal cord tissue was then placed in a shallow groove formed in an agar block and glued onto the stage of a vibratome (Leica, Germany).\nAll signals were recorded using an amplifier (MultiClamp700B; Axon Instruments Inc., Union City, Calif.), filtered at 1-2 kHz, and digitized at 10 kHz."}, "[6]": {"target": "T5, NMDARs of spinally projecting PVN neurons (Rattus norvegicus, UniProt P35439+Q00959+Q00960)", "T5 construct": "from tissue; host or cells: rat hypothalamic slices containing the PVN (Sprague-Dawley, WKY, SHR) and synaptosomes made from them", "assay": "Recordings of spinally projecting PVN neurons in rat brain slices (Ang II)", "format": "cell-based", "conditions": "losartan 2 μmol/L, pregabalin 20 μmol/L, peptides 1 μmol/L", "excerpt": "Retrograde labeling of spinally projecting PVN neurons: Rats or mice were anesthetized with 2-3% isoflurane, and their spinal cords at the T1-T4 level were exposed through dorsal laminectomy. A fluorescent microsphere suspension (FluoSpheres, 0.04 μm; Molecular Probes, Invitrogen, Eugene, Oreg.) was pressure ejected (Nanoject II Microinjectors, Drummond Scientific Company, Broomall, Pa.) bilaterally into the IML region of the spinal cord in six separate 50-nl injections using a glass micropipette (tip diameter, 20-30 μm). […] The wound was closed with sutures after injection. Animals were returned to their cages for 4-7 days, which was sufficient time to permit the tracer to be retrogradely transported to the PVN. The animals were inspected daily for motor activity, signs of infection, and food and water intake.\nBrain slice preparation: Four to seven days after fluorescent tracer injection, the animals were anesthetized with isoflurane and rapidly decapitated. […] Coronal slices (thickness, 300 μm) containing the PVN were cut from the tissue block in the ice-cold aCSF. […] The brain slices were placed in a glass-bottom chamber and continuously perfused with aCSF at 3.0 ml/min at 34° C. maintained by an inline solution heater and temperature controller.\nThe labeled PVN neurons were briefly identified with the aid of epifluorescence illumination, and whole-cell recordings from labeled PVN neurons were performed under differential interference contrast optics on an upright microscope (BX50 WI; Olympus Optical, Tokyo, Japan). Recordings of postsynaptic currents began 5 min after the whole-cell access was established and the current reached a steady state.\nSignals were processed with an […] amplifier (Axon Instruments, Foster City, Calif.). A liquid junction potential of 15 mV (for the potassium gluconate pipette solution) was corrected during off-line analysis.\nPostsynaptic NMDAR currents were elicited by puff application of 100 μmol/L NMDA to the recorded neuron using a positive pressure system (4 p.s.i., 50 ms; Toohey Company, Fairfield, N.J.). The tip of the puff pipette was placed 150 μm from the recorded neuron. […] The NMDAR current data presented in the manuscript were the average of 3 consecutive currents elicited by repeated puff NMDA. The neuron was discarded if the current was not stable.\nAng II, losartan, and NMDA were obtained from Sigma (St. Louis, Mo.). The α2δ-1Tat peptide and scrambled control peptide were synthesized by Bio Basic Inc. (Markham, Ontario, Canada) and validated by liquid chromatography and mass spectrometry. […] All drugs were prepared immediately before the experiments and applied to the slice chamber. The brain slices were first pretreated with Ang II, losartan, α2δ-1Tat peptide, or control peptide in the slice incubation chamber before recording. For electrophysiological recording, the treatment agents were immediately removed and the brain slice transferred to a separate recording chamber."}, "[7]": {"conditions": "paclitaxel-treated rats, AP5 50 μM, pregabalin 20 μM, peptides 1 μM"}, "[8]": {"conditions": "vehicle-treated rats, AP5 50 μM, pregabalin 20 μM, peptides 1 μM"}}, "data": [{"sequence": "FGLGWQPWSLSFYLVWSGLILSVLHLIRSN (Control peptide) [Tat-fused scrambled peptide]", "values": [{"measurement": "ABP and RSNA responses to Ang II after prior peptide microinjection into the PVN", "setting": "anesthetized rats", "value": "not altered"}, {"measurement": "increased amplitude of evoked monosynaptic EPSCs", "setting": "[1]; [7]", "value": "did not significantly alter"}, {"measurement": "increased frequency of mEPSCs of lamina II neurons", "setting": "[1]; [7]", "value": "did not affect"}, {"measurement": "PPR of evoked EPSCs", "setting": "[1]; vehicle-treated rats", "value": "had no effect"}, {"measurement": "amplitude of evoked monosynaptic EPSCs", "setting": "[1]; [8]", "value": "did not significantly alter"}, {"measurement": "frequency of mEPSCs of lamina II neurons", "setting": "[1]; [8]", "value": "did not affect"}, {"measurement": "increased protein levels of GluN1, GluN2A, GluN2B and α2δ-1 in spinal cord synaptosomes", "setting": "[2]; SNL rats", "value": "had no such effects"}, {"measurement": "protein levels of GluN1, GluN2A, GluN2B and α2δ-1 in spinal cord synaptosomes", "setting": "[2]; sham rats", "value": "had no such effects"}, {"measurement": "puff NMDA currents of labelled PVN neurons", "setting": "[3]; SHRs", "value": "had no effect"}, {"measurement": "ratio of NMDAR-EPSCs to AMPAR-EPSCs", "setting": "[3]; SHRs", "value": "did not affect"}, {"measurement": "baseline frequency of mEPSCs of labelled PVN neurons", "setting": "[3]; SHRs, AP5 50 μmol L-1, gabapentin 100 μmol L-1, peptides 1 μmol L-1, 60 min", "value": "had no effect"}, {"measurement": "amplitude of evoked NMDAR-EPSCs of labelled PVN neurons", "setting": "[3]; SHRs, gabapentin 100 μmol L-1, peptides 1 μmol L-1, 60 min", "value": "did not affect"}, {"measurement": "amplitude of puff NMDA currents", "setting": "[3]; WKY rats", "value": "had no effect"}, {"measurement": "frequency or amplitude of mEPSCs of labelled PVN neurons", "setting": "[3]; WKY rats", "value": "had no effect"}, {"measurement": "ratio of NMDAR-EPSCs to AMPAR-EPSCs", "setting": "[3]; WKY rats", "value": "did not affect"}, {"measurement": "amplitude of evoked AMPAR-EPSCs of labelled PVN neurons", "setting": "[3]; WKY rats or SHRs", "value": "did not affect"}, {"measurement": "amplitude of evoked NMDAR-EPSCs of labelled PVN neurons", "setting": "[3]; WKY rats, gabapentin 100 μmol L-1, peptides 1 μmol L-1, 60 min", "value": "did not affect"}, {"measurement": "OGD-induced increase in the puff NMDAR currents", "setting": "[4]", "value": "did not alter"}, {"measurement": "amplitude of monosynaptic evoked EPSCs", "setting": "[5]", "value": "did not affect"}, {"measurement": "effect of Ang II on mEPSC frequency in pretreated slices", "setting": "[6]", "value": "did not affect"}, {"measurement": "effect of Ang II on puff NMDA currents in pretreated slices", "setting": "[6]; 30 min", "value": "significantly increased"}]}]}
